Test results: PMC8085152 (Journal of molecular biology, 2021)

Legend:
[1] = biological target: α-synuclein (αS) monomers, full-length 1-140 (UniProt P37840); assay: co-sedimentation
[2] = biological target: TDP-43 PrLD sonicated fibrils (UniProt Q13148 267-414); assay: ThT fluorescence seeding kinetics

stoichiometry N (TDP-43 PrLD per αS) [1]	binding result [2]	Molecule
1.2	–	TDP-43 PrLD (residues 267-414) monomers, hexahistidine-TEV fusion construct (from UniProt Q13148 267-414) (domain or fragment)
–	binds	TDP-43 PrLD (residues 267-414) monomers, hexahistidine-TEV fusion construct (domain or fragment, UniProt Q13148 267-414, looked up) NRQLERSGRFGGNPGGFGNQGGFGNSRGGGAGLGNNQGSNMGGGMNFGAFSINPAMMAAAQAALQSSWGMMGMLASQQNQSGPSGNNQNQGNMQREPNQAFGSGNNSYSGSNSGAAIGWGSASNAGSGSGFNGGFGSSMDSKSSGWGM
